Consider one substance from publication doi:10.1101/2025.11.19.685371.

The assay has as its target pre-formed Aβ oligomers (Aβ42) (UniProt P05067). In words: fluorescence correlation spectroscopy.

Take “pre-formed Aβ oligomers (Aβ42) (from UniProt P05067 672-713) (complex)”: the fraction of fluorescently labeled Aβ in oligomers was 59%.
